Assay results as given in the DeepSol protein solubility set.

Assay: soluble on expression in E. coli; label from the status in PepcDB or PDB records

Sequence | soluble on expression in E. coli
MTSIALQLLLLLQPYTLTIRRSKMSTKLKQNLEGSFFVVSFSACSPGSKCEISCNITTFRFILYNIAPLFIARKQRQRIGQFAVVRRVRDRKTGEKYAAKFIKKRRYATSRRGVTRQNIEREVRVLQKIRGNSNVVELHAVYETASDVIIVLELVSGGELFDHVCAKECLDEVEAAAFIKQILLAVRHLHSLHIVHLDIKPENVMLKQRGDSQIKIIDFGLSREIEPGAVVKDMVGTPEFVAPEVVNYEALSPATDMWAVGVVTYILLSGGSPFLGDNRDETFSNITRVRYHFSDRYFKNTSKHAKDFIYRLFVRDVDQRATVEECLQHPWIRGPEGNAIDIRKASCITISHIQSFKTRQRWKRCVELVMVLLKASKSSRRIGDGRFDEEDMVASCTLICAEEGNLRALHKLSALHKLLPNATRKSLKSSFSEPNGATAMHCAAKYGHAEVFNYFHMKGGNICARDDNGDTPLHVACRFAQHTVAGYVANEKIDVDSINKTGETALHCAVESADTRVVRLLLQLRPRLDLPNAREETPLHVAAARGHVDCVQALLDANSPIDAVEQDGKTALIIALENGNVDIASILITNGCDINHADHHGDTALHIASKHGLLQAVQTLCHCAVTVDSVNANKKTALHLAAHYGHVDIIRVLLLARADVTLRGDDGLTAELVAVAAERLEAHSLLKMVKSQEIREEYISQLYPLDTSLRRIKLKLLGHSQSGKTRLVQTLHSSRGISSFLESVTRRISDHYSPSSSMKDDGIHSTNGSFVSESNNNSSFDLAAAAGSKYAPPHSQYTRGIDVQTVNINGCGEFSVWEFGGYEPMHTCYDHFVGNADCIHLILYRTSDPTEVQYKQILYWMNFLKGRVTPFEPIGHCGFSSRRSKVIIVGTHATSSLFPQMNQEGEYVSSDIEAMLNTVRLRFETHFDMDHRLILLDATNPSCIGMKTLKMELAKCRTNILAKLLKPLAILDTVVNHLNLVRKKHANFPVITWPDFIQLVRNEINPLTGDAHCRQIVQQLQLIGELVYLRNDLCDADYVVLNAEWFGTHILGQLLSAEFLSKASPNGSYHTSSLAKIFPEIPEQSDLMTILEVLQLCAPDARTGAHEFPVFIQTEAPDSIWRPYSLKEKERDTVYGGVRILPMRGMERSLHSTFPRIQVALRRSINDYQPAKDTQLHQWSECSKLVSQDREAVIRMVGDAVEIRARGPSESATSMFYFMEDLINLVEHAAAEVGPGISLERHFISPKHLKEHREHPALFPPESMMEMQQRESLSVKGTQDEEELFTDVVCFGSRDVARHLTLGIDVGVADLQMASRCELACLLDPPHAMGRDWSILAVKLQLTDQVPDVDSTGQSLSRTDQLLNEWAIHHPEQASVGNLCRILVELGRCDARDALYRTVPLYVFAPLEDQFLLETNDSGVVSSCHSSSEHNPINI | not soluble
MTSLCNKELSDTLVGLYDDYKRGFDIGEELKLCVDLALTLELELSIHRLSETDTVLKKEIIQTLQNRRNSHSNEDETIDETGTIIQMDFKERN | soluble
MTSRTPLVSVLPDFPWDSLASAKAKAASHPDGIVNLSVGTPVDPVAPSIQIALAEAAGFSGYPQTIGTPELRAAIRGALERRYNMTKLVDASLLPVVGTKEAIALLPFALGISGTVVIPEIAYPTYEVAVVAAGCTVLRSDSLFKLGPQIPSMMFINSPSNPTGKVLGIPHLRKVVKWAQENNVILAADECYLGLGWDDENPPISILDPRVCDGDHTNLIAIHSLSKTSNLASYRAGYLVGDPALIGELTEVRKNLGLMVPFPIQQAMIAALNDDDQEAGQKLTYAIRRAKLMRALLESGFQVDNSEAGLYLWATREEPCRDTVDWFAERGILVAPGDFYGPRGAQHVRVAMTETDERVDAFVSRLS | soluble
MTTAAEIITVEKLNDFDYKVALQQQMVAAQNGAAAAVLRPHQIGSSPEAPQSQTSGGSTEQLQQQPLPPPTQQKQQQPLTIGPVAPNDRSTSSSSTDGPRRLHVSNIPFKYREPDLTAMFEKVGPVVDVEIIFNERGSKGFGFVTMQNPDDADRARAEFNGTTIEGRRVEVNLATQRVHNKKAKPLMSVGVDAMSAQNALISQQQQIQRAALLQQQLLAQQFLVPRHQQLMMPPTSAAAISQLQALQYQQALLAAQQQQQQMQNPQFLLSLQQQQQAQAQAPPTSMAQLIQHQQQFAMDPMAQAQAQAAQAQMVTLIAFEQQRMQLQAAAAAAQGRGVPQPGRIPTSTATTGSSQNQVAAGSIGEQYLQQSMQGAVPANFHHHSQALHPAAAAAAALQRRFAPY | not soluble
MTTEYLDEERDLPLPRQKKGIDHTQTEPIRGFFGVKDMFAFENVGFTRSSEGKRYLVCGECEQGPVGFVDPVTEMNYVSPERLDVLPDVAAAAVEAGK | not soluble
MTTHIQKPATGSPLTLLNGVLQVPDQPIIPFIEGDGIGCDVTPAMRSVVDAAVAKVYGGQRQIAWMELFAGQKAVQLYGEGQYLPDETMAAIREYKVAIKGPLETPVGGGIRSLNVAMRQDLDLYVCLRPVRYFEGTPSPMRHPEKVDMVIFRENSEDIYAGIEWPAGSPEAEKIIRFLREEMGVTKIRFPDSSAIGIKPVSTEGSERLIRRTIQYALEHGKPSVSLVHKGNIMKFTEGGFRDWGYALAEREFAGRVFTWRQKAAISKAEGKAAGQKAEQQAIADGKLIIKDVIADNFLQQILLRPEDYSVVATLNLNGDYVSDALAAEVGGIGMAPGANLSDTHAIFEATHGTAPDIAGQGKANPSSLILSAVMMLEHLGWGEAAQAIVAAMNATIAAGEVTGDLAALRGDVPALSTTEFTAALIRRF | soluble
MTTKLVRPSDQATSNQVPVPGALVPHLDQCALLLDIDGTLLDLAPTPREVWVPPELEQTLTNLLVRTSGALALVSGRSINDIDLIFAPMRLPAVGGHGAEMRLSGEGEAIATHAPPLDSELKSRLAAIARISPGILLEDKGYSLALHYRLAPHTEKAIYEAVAAIRAENPEAPLEVLPGKSVCEIKHSGFTKATGVLELMTRAPFKGRRPIFIGDDVTDETVFAIMPELRGLAFSVGRYSELTSGHFDEPRDVRNWLARLLEPANLEHHHHHH | soluble
MTTLTLAELATITGGELFGDPTALVSAVAPMDKAQLGHVTFLSNPKYSKHLGDCKATVIMVKTSERELCPSNALVVADPYVAFAKVAQALDSTPSPAHGIAPSAVIAEDAKLGHNVSIGANAVIESGVQLGDNVVIGAGCFIGKQARLGDNTKLWANVTIYHKVEIGSDCLIQSGTVIGADGFGYANERGEWIKIPQLGSVRIGDRVEIGACTTIDRGALDDTVIEDNVIIDNQLQIAHNVHIGYGSALAGGTVIAGSTRIGKYCIIGGASVINGHIEIADGVTITGMGMVMRSIEEKGMYSSGIPLQTNKEWRKTAARVHRIDDMHKRLKALEKLLEQSDTVQPDNSQAE | not soluble
MTTPFTHETLPADPKAAIRQMKQALRAQIGDVQAVFDRLSATIAARVAEINDLKAQGQPVWPIIPFSELAMGNISDATRAEVKRRGCAVIKGHFPREQALAWDQSMLDYLDKNHFDEVYKGPGDNFFGTLSASRPEIYPVYWSQAQMQARQSEEMALAQSFLNRLWQVEHDGKRWFNPDISIIYPDRIRRRPPGTTSKGLGAHTDSGALERWLLPAYQQVFASVFNGNVEQYDPWNAAHRTDVEEYTVDNTTKCSVFRTFQGWTALSDMLPGQGLLHVVPIPEAMAYILLRPLLDDVPEDELCGVAPGRVLPISEQWHPLLMAALTSIPPLEAGDSVWWHCDVIHSVAPVENQQGWGNVMYIPAAPMCEKNLAYARKVKAALETGASPGDFPREDYETTWEGRFTLRDLNIHGKRALGIDV | soluble
MTTTPANVLASVDLGSNSFRLQICENNNGQLKVIDSFKQMVRFAAGLDEQKNLSAASQEQALDCLAKFGERLRGFRPEQVRAVATNTFRVAKNIADFLPKAEAALGFPIEIIAGREEARLIYTGVIHTLPPGGGKMLVIDIGGGSTEFVIGSTLNPDITESLPLGCVTYSLRFFQNKITAKDFQSAISAARNEIQRISKNMRREGWDFAVGTSGSAKSIRDVLAAEMPQEADITYKGMRALAERIIEAGSVKKAKFENLKPERIEVFAGGLAVMMAAFEEMKLDRMTVTEAALRDGVFYDLIGRGLNEDMRGQTVAEFQHRYHVSLNQAKRTAETAQTFMDSLCHAKNVTVQELALWQQYLGRAAALHEIGLDIAHTGYHKHSAYILENADMPGFSRKEQTILAQLVIGHRGDMKKMSGIIGTNEMLWYAVLSLRLAALFCRSRQDLSFPKNMQLRTDTESCGFILRIDREWLERHPLIADALEYESVQWQKINMPFKVEAV | not soluble
MTVERLENGVIVQRNTNEIEISITLDTVHGKLEGSTGVNFFDHLLNTFCHYSGLGLRVSTCESKDGILHHLIEDFGISLGLAFRELFDYTKVRRFGEATVPMNEALVGCYVDLSGRPFFQKNFEFSVEKIEDMPVEGFEEFMCGFVNHARITVHFFKFFGKNDHHISESAMKSFGLAIAKALESSEKKTTKGVID | soluble
MTVITEPARQTPVIHNTDVLVVGSGPGGLAAALAAARAGVDVCLVERFGCFGGNITVVGVEGFAWYRHEATVEAGGIGREFEDRAREMGAAVPESQSLSYEIDSEGFKLVADRLVEEAGVHGMLHRQFVAPVMEGDRVAGIIVESKAGREAILARVVIDATGDADVAHRAGAPTLKTPAEHMQAASVMFHLAGVDKAAFMAEVRRDPQTYKDWSTGEWTVETDGKEDDMFSPFLKKPFAKAIEEGVIPPHLNTIAGTWGAMHDTGELTYMNLVHLAGVDGTDPDSLTQGEIEGRRQAMLAIEALRRFMPGCGGVRLRNFGMTIGIRDTRKIRAAYDMTETDVRQQGRFDDSIGIYPEFIDGYGVLIIPTTGRYMQIPYRAVLPGKVKGLLVAGRAIGGDRIAHAATRNMACCAVAGQGAGVAAALAVKTGCDVAQVDMAGVQAELLRQGVRIALEHHHHHH | not soluble
MTVRVGDPELVLDPYDYDFHEDPYPYYRRLRDEAPLYRNEERNFWAVSRHHDVLQGFRDSTALSNAYGVSLDPSSRTSEAYRVMSMLAMDDPAHLRMRTLVSKGFTPRRIRELEPQVLELARIHLDSALQTESFDFVAEFAGKLPMDVISELIGVPDTDRARIRALADAVLHREDGVADVPPPAMAASIELMRYYADLIAEFRRRPANNLTSALLAAELDGDRLSDQEIMAFLFLMVIAGNETTTKLLANAVYWAAHHPGQLARVFADHSRIPMWVEETLRYDTSSQILARTVAHDLTLYDTTIPEGEVLLLLPGSANRDDRVFDDPDDYRIGREIGCKLVSFGSGAHFCLGAHLARMEARVALGALLRRIRNYEVDDDNVVRVHSSNVRGFAHLPISVQAR | not soluble
MTVSGPGTPEPRPATPGASSVEQLRKEGNELFKCGDYGGALAAYTQALGLDATPQDQAVLHRNRAACHLKLEDYDKAETEASKAIEKDGGDVKALYRRSQALEKLGRLDQAVLDLQRCVSLEPKNKVFQEALRNI | soluble
MTVTYIGHSGFLLETEDAYFLFDYFEGTIPELKNNKSIIVFSSHRHHDHFNPEIFELIKIYPDIRYVLSYDIPLKRHLKKYENQGIDLAKNILITKKNIETMLKLPNGKDLKISTFRSTDEGVAFLLEYDNKVYYHAGDLNCWYWKEEPKSYRNNMIQLYIREIQKMDNLKIDVAFVPLDPRLEETAYEGLEIFMEHTNPQIVFPMHCWGKYDIISSFLNKHPEYKEKIRMINNEGQIFNV | not soluble
MTVVDAHLHVWDPEQAAYEWLGPAMAPVDRAMRFHDALPALRTAGVGAAVLVQAADNDEDTDLMLATAARHPEVVGVVAWVPLDDPGRARARLAALRRDPHVVGVRTLLHERSDPDWVLGPDADAGLALLAEAGLPFDYSTTSPAALRHLAELSARHPALRLVVDHLGKPPVGGGREDRAEWHRLIAAAAKHPGVHAKLSGLYSASGALDAWTTDEVRPFVEDALELFGPERLMYGGDWPISLLAGGYARTWEAMCELLAPLAPDDRAAVLGGTATRFYRLDPALLNTAHHAAVLEHHHHHH | not soluble
